First the molecules themselves.
T1: MHC class I H-2K^b on RMA-S cells (C57BL/6 TAP2-deficient cells) (mouse, UniProt P01887 21-119; P01901 22-369)
T1 construct: whole, on cells; Cell surface H-2K^b stabilised by added peptide and detected with anti-H-2K^b antibody HB-158
T1 sequence (MHC heavy, looked up): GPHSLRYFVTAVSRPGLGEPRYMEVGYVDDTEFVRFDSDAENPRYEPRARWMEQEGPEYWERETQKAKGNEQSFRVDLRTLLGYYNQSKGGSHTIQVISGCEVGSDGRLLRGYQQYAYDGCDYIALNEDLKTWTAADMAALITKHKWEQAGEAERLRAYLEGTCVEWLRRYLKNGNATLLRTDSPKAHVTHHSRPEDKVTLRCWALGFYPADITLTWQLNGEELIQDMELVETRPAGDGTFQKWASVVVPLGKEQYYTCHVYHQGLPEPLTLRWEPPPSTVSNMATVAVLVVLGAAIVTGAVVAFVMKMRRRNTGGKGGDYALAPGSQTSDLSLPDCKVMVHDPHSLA
T1 sequence (b2m, looked up): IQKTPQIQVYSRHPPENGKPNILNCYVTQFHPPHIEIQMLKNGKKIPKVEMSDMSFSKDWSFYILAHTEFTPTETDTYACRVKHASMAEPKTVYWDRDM

B1: soluble H-2K^b (soluble extracellular domains; heavy chain residues 1-274 with C-terminal His-tag and β2-microglobulin residues 1-99) (other)
chain: GPHSLRYFVTAVSRPGLGEPRYMEVGYVDDTEFVRFDSDAENPRYEPRARWMEQEGPEYWERETQKAKGNEQSFRVDLRTLLGYYNQSKGGSHTIQVISGCEVGSDGRLLRGYQQYAYDGCDYIALNEDLKTWTAADMAALITKHKWEQAGEAERLRAYLEGTCVEWLRRYLKNGNATLLRTDSPKAHVTHHSRPEDKVTLRCWALGFYPADITLTWQLNGEELIQDMELVETRPAGDGTFQKWASVVVPLGKEQYYTCHVYHQGLPEPLTLRWEPPPSTVSNM
B2: MUC1-8 (SAPDTRPA) (peptide)
peptide: SAPDTRPA
notes: Synthetic peptide, purity >95%; also called MUC1-8 peptide; parent non-canonical peptide MUC1-8

Experiment [1] deals with SEV9 ([…]), Sendai virus NP324-332 (Sendai virus). Description: inhibition assay with soluble H-2K^b, 23° C.
Experiment [2] has the same target. Description: inhibition assay with soluble H-2K^b, 37° C.
Experiment [3] shares this target. Kind of experiment: inhibition assay with soluble H-2K^b, 4° C.
Experiment [4] deals with B1. Description: inhibition assay with soluble H-2K^b, 23° C.
In experiment [5] the target is T1, MHC class I H-2K^b on RMA-S cells …. Description: peptide stabilisation assay on RMA-S cells, flow cytometry with anti-H-2K^b. A general note: A flow cytometer gives signals particle by particle.
Procedure: MHC class I molecules in the murine cell line RMA-S (C57BL/6 TAP2-deficient cells) can be used to measure the direct binding of peptides to class I molecules in vitro. […] The cells were washed once again and 100 μl (1:500 dilution) of FITC-conjugated sheep (Fab′)₂ anti-mouse immunoglobulin was added and incubated for 45 min at 4° C.; after further washing, cells were analyzed by FACScan.
Experiment [6] has as its target B1. Kind of experiment: inhibition assay with soluble H-2K^b, 37° C.
The target in experiment [7] is B1. Description: inhibition assay with soluble H-2K^b, 4° C.
The target of experiment [8] is B1. Kind of experiment: inhibition assay with soluble H-2K^b, 23° C. This is another data set of the same source.
For experiment [9], the target named is B1. Kind of experiment: inhibition assay with soluble H-2K^b, 23° C. and 37° C.

In general, Kd refers to the constant that tells how readily two partners part at equilibrium. For the molecule B1, the values for the Kd in [1], in [2] and in experiment [3] were 3 nM, 30 nM and 5 nM, respectively.
Consider B2, for which the Kd in experiment [4] was found to be 877 nM; in experiment [6], 37 µM; in [7] it was 433 nM. Also, the “peptide concentration that stabilised H-2K^b” value in [5] is greater than 100000 nM.
As to SAPDFRPL (Synthetic peptide) [MUC1-8-5F8L (SAPDFRPL)], the “fold increase in affinity against MUC1-8” value in experiment [8] was 14 fold. Besides, the Kd amounted to 60 nM in experiment [4], 0.3 µM in [6] and 160 nM in experiment [7]. For the same molecule, in experiment [5], the “peptide concentration that stabilised H-2K^b” value is greater than 1 nM.
For the molecule SAPDFRPA (Synthetic peptide) [MUC1-8-5F (SAPDFRPA)], the results for the dissociation constant (Kd) in experiment [4], in [6] and in experiment [7] were 130 nM, 4.9 µM and 460 nM, respectively. Besides, the “peptide concentration that stabilised H-2K^b” value in experiment [5] was greater than 100 nM. The “fold increase in affinity against MUC1-8” value in experiment [9] is no less than 7 fold.
For SAPDTRPL (Synthetic peptide) [MUC1-8-8L (SAPDTRPL)], in that order: 250 nM, 8.9 µM, 150 nM, greater than 1000 nM and no less than 3 fold.
Consider SIINFEKL [OVA8 (SIINFEKL), Chicken ovalbumin257-264], for which the dissociation constant Kd stood at 10 nM in experiment [4], 0.082 µM in [6] and 6 nM in experiment [7].

The values are drawn from patent US20090317414A1 (4G VACCINES, published 2009).
